The results in this text go back to FireProtDB (doi:10.1111/j.1432-1033.1994.tb18664.x).

Sequences and labels used below:
B1: Ribonuclease HI, P0A7Y4 (parent)
chain: MLKQVEIFTDGSCLGNPGPGGYGAILRYRGREKTFSAGYTRTTNNRMELMAAIVALEALKEHCEVILSTDSQYVRQGITQWIHNWKKRGWKTADKKPVKNVDLWQRLDAALGQHQIKWEWVKGHAGHPENERCDELARAAAMNPTLEDTGYQVEV

The data set covers variants of B1. The note with it: Escherichia coli (strain K12), Thermal, CD, NaCl 0.1 M, reversible: yes, structure 2RN2, whole UniProt chain shown.
Setting [1] is: pH 5.5, 53.1 °C, Sodium acetate 20 mM.

Turning to MLKQVEIFTDGSCLGNPGPGGYGAILRYRGREKTFSAGYTRTTNNRMELMAAIVALEALKEHCEVILSTDSQYVRQGITQWIHNWKKRGWKTADKKPVKNVDLWQRLDAALGQHQIKWEWVKGHAGHPENERCQELARAAAMNPTLEDTGYQVEV [D134Q], the “ddG of mutation (higher = less stable)” value (pH 3, 50 °C, glycine-HCl 10 mM) was -0.48 kcal/mol. For the same variant, under “pH 3, glycine-HCl 10 mM”, the Tm (commonly the temperature at which the thermal transition is half complete) worked out at 51.6 °C; the “change of melting temperature, mutant - wild type (higher = more stable)” value (from here on “change of melting temperature, mutant”) came out at 1.6 °C; the “unfolding enthalpy (van 't Hoff)” value amounted to 114 kcal/mol. Moreover, under setting [1], the “ddG of mutation (higher = less stable)” value was -1.32 kcal/mol. For the setting “pH 5.5, Sodium acetate 20 mM”, the Tm came out at 57.9 °C; the “change of melting temperature, mutant” value worked out at 4.8 °C; the “unfolding enthalpy (van 't Hoff)” value is 96.9 kcal/mol.

MLKQVEIFTDGSCLGNPGPGGYGAILRYRGREKTFSAGYTRTTNNRMELMAAIVALEALKEHCEVILSTDSQYVRQGITQWIHNWKKRGWKTADKKPVKNVDLWQRLDAALGQHQIKWEWVKGHAGHPENERCTELARAAAMNPTLEDTGYQVEV [D134T]: the “ddG of mutation (higher = less stable)” value (pH 3, 50 °C, glycine-HCl 10 mM) was -0.12 kcal/mol. In addition, where the note is “pH 3, glycine-HCl 10 mM”, the Tm stood at 50.4 °C; the “change of melting temperature, mutant” value was 0.4 °C; the “unfolding enthalpy (van 't Hoff)” value is 107 kcal/mol. Besides, under “pH 5.5, Sodium acetate 20 mM”, the Tm was 57 °C; the “change of melting temperature, mutant” value was determined as 3.9 °C; the “unfolding enthalpy (van 't Hoff)” value was determined as 90.2 kcal/mol.

For the variant MLKQVEIFTDGSCLGNPGPGGYGAILRYRGREKTFSAGYTRTTNNRMELMAAIVALEALKEHCEVILSTDSQYVRQGITQWIHNWKKRGWKTADKKPVKNVDLWQRLDAALGQHQIKWEWVKGHAGHPENERCNELARAAAMNPTLEDTGYQVEV [D134N], for the setting “pH 3, 50 °C, glycine-HCl 10 mM”, the “ddG of mutation (higher = less stable)” value was determined as 0.1 kcal/mol. Further, where the note is “pH 3, glycine-HCl 10 mM”, the Tm is 49.7 °C; the “change of melting temperature, mutant” value was -0.3 °C; the “unfolding enthalpy (van 't Hoff)” value was 110 kcal/mol. Under “pH 5.5, Sodium acetate 20 mM”, the Tm was 56.3 °C; the “change of melting temperature, mutant” value stood at 3.2 °C; the “unfolding enthalpy (van 't Hoff)” value is 96.9 kcal/mol.

Turning to MLKQVEIFTDGSCLGNPGPGGYGAILRYRGREKTFSAGYTRTTNNRMELMAAIVALEALKEHCEVILSTDSQYVRQGITQWIHNWKKRGWKTADKKPVKNVDLWQRLDAALGQHQIKWEWVKGHAGHPENERCVELARAAAMNPTLEDTGYQVEV [D134V], the “ddG of mutation (higher = less stable)” value runs as follows: (pH 3, 50 °C, glycine-HCl 10 mM) -0.31 kcal/mol; under setting [1], -1.12 kcal/mol. For the same variant, the Tm amounted to 51.1 °C (pH 3, glycine-HCl 10 mM) and 57.2 °C (pH 5.5, Sodium acetate 20 mM). The “change of melting temperature, mutant” value worked out at 1.1 °C (pH 3, glycine-HCl 10 mM) and 4.1 °C (pH 5.5, Sodium acetate 20 mM). For the same variant, the “unfolding enthalpy (van 't Hoff)” value reads like this: (pH 3, glycine-HCl 10 mM) 107 kcal/mol; (pH 5.5, Sodium acetate 20 mM) 99 kcal/mol.

As to MLKQVEIFTDGSCLGNPGPGGYGAILRYRGREKTFSAGYTRTTNNRMELMAAIVALEALKEHCEVILSTDSQYVRQGITQWIHNWKKRGWKTADKKPVKNVDLWQRLDAALGQHQIKWEWVKGHAGHPENERCSELARAAAMNPTLEDTGYQVEV [D134S], for the setting “pH 3, 50 °C, glycine-HCl 10 mM”, the “ddG of mutation (higher = less stable)” value was -0.26 kcal/mol. Moreover, for the setting “pH 3, glycine-HCl 10 mM”, the Tm was 50.9 °C; the “change of melting temperature, mutant” value stood at 0.9 °C; the “unfolding enthalpy (van 't Hoff)” value came out at 106 kcal/mol. Moreover, the “ddG of mutation (higher = less stable)” value under setting [1] was -1.08 kcal/mol.
